This assay relates to endothelial tip cells within the glioblastoma. Put plainly: Injection by osmotic minipumps in a mouse model of glioblastoma, endothelial tip cell count. It counts as in vivo. The conditions noted are these: 20 days post-injection, versus scrambled Nogo-A Delta 20. From the text:
Coronal brain sections (40 μm) of glioblastoma-bearing mice (20 days post-injection, 20D-PI) were perfused with FITC Lectin (green) to visualize perfused blood vessels and stained for Endomucin to visualize blood vessels including endothelial tip cells (red) and the general nuclear marker DAPI (blue). The boxed areas are enlarged in d-f and in g-i. (a-f). Endomucin^+ endothelial tip cells (red, arrows) and FITC Lectin^+ established blood vessel (green) (d-f) are shown within the glioblastoma. Endomucin seems to be specific for blood vessels within the glioblastoma (red) (as compared to Endomucin^− blood vessels in the surrounding normal brain; green). (d,f,g,i) Note the nicely visualized Endomucin^+ endothelial tip cells including filopodial protrusions (red, arrows) (g) within the glioblastoma. (j) Injection of Nogo-A Delta 20 decreases the mean number of endothelial tip cells within the glioblastoma, showing its inhibitory effect on mouse glioblastoma blood vessels.
GL261 glioma cell implantation into adult (two months old) C57BL/6 animals was performed as previously described (Aulwurm et al., Int J Cancer 2006;118, 1728-1735; Biollaz et al., Eur J Immunol 2009;39, 1323-1333j). Briefly, a total of 2×10^4 GL261 cells were inoculated through a borehole placed 1 mm lateral and 2 mm dorsal to the bregma at 3 mm depth using a Hamilton syringe. […]

This note sets out measurements from patent US20180015144A1, “AGONISTS OF THE NOGO-A S1PR PATHWAY FOR THE TREATMENT OF GLIOBLASTOMA” (UNIVERSITAT ZURICH, priority 2015, published 2018).

B1: Nogo-A Delta 20: Nogo-A specific inhibitory domain, 182 aa; human aa 567-748 (SEQ ID NO 002), rat aa 544-725 (SEQ ID NO 001) (protein, UniProt Q9NQC3 567-748, looked up, fragment)
chain: TGTKIAYETKMDLVQTSEVMQESLYPAAQLCPSFEESEATPSPVLPDIVMEAPLNSAVPSAGASVIQPSSSPLEASSVNYESIKHEPENPPPYEEAMSVSLKKVSGIKEEIKEPENINAALQETEAPYISIACDLIKETKLSAEPAPDFSDYSEMAKVEQPVPDHSELVEDSSPDSEPVDLF
As for B1, the “mean number of endothelial tip cells within the glioblastoma” value is “decreases”.
